Test results published in US6403637 (dated 2002).

T1: collagenase-3 receptor (170 kDa protein) of mouse embryo fibroblasts MEF-1 and MEF-2 (mouse, UniProt Q64449 31-1479)
T1 construct: whole, on cells
T1 sequence (looked up): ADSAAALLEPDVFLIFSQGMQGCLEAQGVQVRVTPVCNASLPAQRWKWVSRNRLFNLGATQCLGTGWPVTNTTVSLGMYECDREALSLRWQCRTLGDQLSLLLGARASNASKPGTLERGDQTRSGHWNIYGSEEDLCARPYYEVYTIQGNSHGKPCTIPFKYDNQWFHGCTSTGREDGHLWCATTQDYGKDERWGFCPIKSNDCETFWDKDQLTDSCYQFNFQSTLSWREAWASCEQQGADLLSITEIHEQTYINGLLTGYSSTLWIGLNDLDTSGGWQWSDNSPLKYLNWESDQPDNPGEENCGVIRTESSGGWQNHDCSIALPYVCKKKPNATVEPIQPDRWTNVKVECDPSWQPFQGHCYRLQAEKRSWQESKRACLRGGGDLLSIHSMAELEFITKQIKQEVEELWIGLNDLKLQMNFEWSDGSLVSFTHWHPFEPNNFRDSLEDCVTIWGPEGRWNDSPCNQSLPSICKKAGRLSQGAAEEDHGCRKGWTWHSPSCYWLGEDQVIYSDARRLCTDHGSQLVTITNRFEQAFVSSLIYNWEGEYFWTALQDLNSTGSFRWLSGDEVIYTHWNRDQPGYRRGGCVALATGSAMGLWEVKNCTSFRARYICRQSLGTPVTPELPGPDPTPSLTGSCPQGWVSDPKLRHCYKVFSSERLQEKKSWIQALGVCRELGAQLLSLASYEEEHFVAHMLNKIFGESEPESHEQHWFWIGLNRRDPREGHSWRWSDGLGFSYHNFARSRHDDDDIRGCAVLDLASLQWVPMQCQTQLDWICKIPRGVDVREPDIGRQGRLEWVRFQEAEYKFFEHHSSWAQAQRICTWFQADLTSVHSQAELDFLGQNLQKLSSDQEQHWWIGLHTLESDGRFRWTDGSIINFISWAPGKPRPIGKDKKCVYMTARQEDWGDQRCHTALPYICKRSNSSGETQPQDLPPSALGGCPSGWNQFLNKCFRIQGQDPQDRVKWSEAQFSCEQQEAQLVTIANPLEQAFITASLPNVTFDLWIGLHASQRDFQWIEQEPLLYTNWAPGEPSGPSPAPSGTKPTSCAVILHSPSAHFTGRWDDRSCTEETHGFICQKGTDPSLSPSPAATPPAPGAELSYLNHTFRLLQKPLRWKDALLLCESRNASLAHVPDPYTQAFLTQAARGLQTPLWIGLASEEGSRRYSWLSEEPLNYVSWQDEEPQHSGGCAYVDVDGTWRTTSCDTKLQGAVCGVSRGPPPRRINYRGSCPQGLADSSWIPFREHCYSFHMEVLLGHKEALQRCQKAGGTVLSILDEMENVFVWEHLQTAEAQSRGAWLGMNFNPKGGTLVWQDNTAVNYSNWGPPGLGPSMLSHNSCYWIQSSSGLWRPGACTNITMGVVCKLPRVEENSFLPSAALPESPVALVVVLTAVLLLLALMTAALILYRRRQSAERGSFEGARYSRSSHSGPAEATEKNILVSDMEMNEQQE

B1: recombinant mouse collagenase-3 (mMMP-13, residues 1-472) (enzyme)
chain: not shown
modifications: ^125I-labeled where used as tracer
notes: not shown: N-terminal 6×His purification tag of pET30
B2: H/M(229-472) chimeric collagenase (enzyme)
chain: not shown
notes: 62 kDa; not shown: N-terminal 6×His purification tag of pET30
B3: C-terminally truncated mouse collagenase-3, M(1-265) (enzyme)
chain: not shown
notes: range 1-265; also called MMP-13 (1-265); truncated MMP-13; not shown: N-terminal 6×His purification tag of pET30
B4: HM/M(141-472) chimeric collagenase (enzyme)
chain: not shown
notes: as for B2

Experiments:
[1] = molecular target: T2, rat collagenase-3 receptor (170 kDa protein) of UMR 106-01 rat osteosarcoma cells and other rat cells (rat); test: Scatchard analysis of ^125I-mMMP-13 binding to UMR106-01 cells; high affinity site (ostensibly the collagenase-3 receptor)
T2 construct: whole, on cells; on blotted cell membranes in the ligand blots; also called collagenase receptor; rat collagenase receptor

[2] = molecular target: T3, low density lipoprotein receptor-related protein of rat cells (UMR 106-01, normal rat osteoblasts) (rat); test: Scatchard analysis of ^125I-mMMP-13 binding to UMR106-01 cells; lower affinity site (ostensibly the low density lipoprotein receptor-related protein)
T3 construct: whole, on cells; On blotted membranes in ligand and Western blots; also called LRP; 600 kDa protein

[3] = molecular target: T1, collagenase-3 receptor (170 kDa …); test: competition with ^125I mouse collagenase-3 on MEF-2 (LRP null) cells; 200-, 400- and 800-fold excess of competitor
Source text: This sequence corresponds to a published low density lipoprotein receptor-related protein consensus binding sequence.

[4] = molecular target: T2, rat collagenase-3 receptor (170 kDa …); test: from the Scatchard analysis on UMR 106-01 cells
[5] = molecular target: T3, low density lipoprotein …; test: computer analysis of ^125I-mMMP-13 binding to UMR106-01 cells; lower affinity site

T3 sequence (G3V928 20-3944): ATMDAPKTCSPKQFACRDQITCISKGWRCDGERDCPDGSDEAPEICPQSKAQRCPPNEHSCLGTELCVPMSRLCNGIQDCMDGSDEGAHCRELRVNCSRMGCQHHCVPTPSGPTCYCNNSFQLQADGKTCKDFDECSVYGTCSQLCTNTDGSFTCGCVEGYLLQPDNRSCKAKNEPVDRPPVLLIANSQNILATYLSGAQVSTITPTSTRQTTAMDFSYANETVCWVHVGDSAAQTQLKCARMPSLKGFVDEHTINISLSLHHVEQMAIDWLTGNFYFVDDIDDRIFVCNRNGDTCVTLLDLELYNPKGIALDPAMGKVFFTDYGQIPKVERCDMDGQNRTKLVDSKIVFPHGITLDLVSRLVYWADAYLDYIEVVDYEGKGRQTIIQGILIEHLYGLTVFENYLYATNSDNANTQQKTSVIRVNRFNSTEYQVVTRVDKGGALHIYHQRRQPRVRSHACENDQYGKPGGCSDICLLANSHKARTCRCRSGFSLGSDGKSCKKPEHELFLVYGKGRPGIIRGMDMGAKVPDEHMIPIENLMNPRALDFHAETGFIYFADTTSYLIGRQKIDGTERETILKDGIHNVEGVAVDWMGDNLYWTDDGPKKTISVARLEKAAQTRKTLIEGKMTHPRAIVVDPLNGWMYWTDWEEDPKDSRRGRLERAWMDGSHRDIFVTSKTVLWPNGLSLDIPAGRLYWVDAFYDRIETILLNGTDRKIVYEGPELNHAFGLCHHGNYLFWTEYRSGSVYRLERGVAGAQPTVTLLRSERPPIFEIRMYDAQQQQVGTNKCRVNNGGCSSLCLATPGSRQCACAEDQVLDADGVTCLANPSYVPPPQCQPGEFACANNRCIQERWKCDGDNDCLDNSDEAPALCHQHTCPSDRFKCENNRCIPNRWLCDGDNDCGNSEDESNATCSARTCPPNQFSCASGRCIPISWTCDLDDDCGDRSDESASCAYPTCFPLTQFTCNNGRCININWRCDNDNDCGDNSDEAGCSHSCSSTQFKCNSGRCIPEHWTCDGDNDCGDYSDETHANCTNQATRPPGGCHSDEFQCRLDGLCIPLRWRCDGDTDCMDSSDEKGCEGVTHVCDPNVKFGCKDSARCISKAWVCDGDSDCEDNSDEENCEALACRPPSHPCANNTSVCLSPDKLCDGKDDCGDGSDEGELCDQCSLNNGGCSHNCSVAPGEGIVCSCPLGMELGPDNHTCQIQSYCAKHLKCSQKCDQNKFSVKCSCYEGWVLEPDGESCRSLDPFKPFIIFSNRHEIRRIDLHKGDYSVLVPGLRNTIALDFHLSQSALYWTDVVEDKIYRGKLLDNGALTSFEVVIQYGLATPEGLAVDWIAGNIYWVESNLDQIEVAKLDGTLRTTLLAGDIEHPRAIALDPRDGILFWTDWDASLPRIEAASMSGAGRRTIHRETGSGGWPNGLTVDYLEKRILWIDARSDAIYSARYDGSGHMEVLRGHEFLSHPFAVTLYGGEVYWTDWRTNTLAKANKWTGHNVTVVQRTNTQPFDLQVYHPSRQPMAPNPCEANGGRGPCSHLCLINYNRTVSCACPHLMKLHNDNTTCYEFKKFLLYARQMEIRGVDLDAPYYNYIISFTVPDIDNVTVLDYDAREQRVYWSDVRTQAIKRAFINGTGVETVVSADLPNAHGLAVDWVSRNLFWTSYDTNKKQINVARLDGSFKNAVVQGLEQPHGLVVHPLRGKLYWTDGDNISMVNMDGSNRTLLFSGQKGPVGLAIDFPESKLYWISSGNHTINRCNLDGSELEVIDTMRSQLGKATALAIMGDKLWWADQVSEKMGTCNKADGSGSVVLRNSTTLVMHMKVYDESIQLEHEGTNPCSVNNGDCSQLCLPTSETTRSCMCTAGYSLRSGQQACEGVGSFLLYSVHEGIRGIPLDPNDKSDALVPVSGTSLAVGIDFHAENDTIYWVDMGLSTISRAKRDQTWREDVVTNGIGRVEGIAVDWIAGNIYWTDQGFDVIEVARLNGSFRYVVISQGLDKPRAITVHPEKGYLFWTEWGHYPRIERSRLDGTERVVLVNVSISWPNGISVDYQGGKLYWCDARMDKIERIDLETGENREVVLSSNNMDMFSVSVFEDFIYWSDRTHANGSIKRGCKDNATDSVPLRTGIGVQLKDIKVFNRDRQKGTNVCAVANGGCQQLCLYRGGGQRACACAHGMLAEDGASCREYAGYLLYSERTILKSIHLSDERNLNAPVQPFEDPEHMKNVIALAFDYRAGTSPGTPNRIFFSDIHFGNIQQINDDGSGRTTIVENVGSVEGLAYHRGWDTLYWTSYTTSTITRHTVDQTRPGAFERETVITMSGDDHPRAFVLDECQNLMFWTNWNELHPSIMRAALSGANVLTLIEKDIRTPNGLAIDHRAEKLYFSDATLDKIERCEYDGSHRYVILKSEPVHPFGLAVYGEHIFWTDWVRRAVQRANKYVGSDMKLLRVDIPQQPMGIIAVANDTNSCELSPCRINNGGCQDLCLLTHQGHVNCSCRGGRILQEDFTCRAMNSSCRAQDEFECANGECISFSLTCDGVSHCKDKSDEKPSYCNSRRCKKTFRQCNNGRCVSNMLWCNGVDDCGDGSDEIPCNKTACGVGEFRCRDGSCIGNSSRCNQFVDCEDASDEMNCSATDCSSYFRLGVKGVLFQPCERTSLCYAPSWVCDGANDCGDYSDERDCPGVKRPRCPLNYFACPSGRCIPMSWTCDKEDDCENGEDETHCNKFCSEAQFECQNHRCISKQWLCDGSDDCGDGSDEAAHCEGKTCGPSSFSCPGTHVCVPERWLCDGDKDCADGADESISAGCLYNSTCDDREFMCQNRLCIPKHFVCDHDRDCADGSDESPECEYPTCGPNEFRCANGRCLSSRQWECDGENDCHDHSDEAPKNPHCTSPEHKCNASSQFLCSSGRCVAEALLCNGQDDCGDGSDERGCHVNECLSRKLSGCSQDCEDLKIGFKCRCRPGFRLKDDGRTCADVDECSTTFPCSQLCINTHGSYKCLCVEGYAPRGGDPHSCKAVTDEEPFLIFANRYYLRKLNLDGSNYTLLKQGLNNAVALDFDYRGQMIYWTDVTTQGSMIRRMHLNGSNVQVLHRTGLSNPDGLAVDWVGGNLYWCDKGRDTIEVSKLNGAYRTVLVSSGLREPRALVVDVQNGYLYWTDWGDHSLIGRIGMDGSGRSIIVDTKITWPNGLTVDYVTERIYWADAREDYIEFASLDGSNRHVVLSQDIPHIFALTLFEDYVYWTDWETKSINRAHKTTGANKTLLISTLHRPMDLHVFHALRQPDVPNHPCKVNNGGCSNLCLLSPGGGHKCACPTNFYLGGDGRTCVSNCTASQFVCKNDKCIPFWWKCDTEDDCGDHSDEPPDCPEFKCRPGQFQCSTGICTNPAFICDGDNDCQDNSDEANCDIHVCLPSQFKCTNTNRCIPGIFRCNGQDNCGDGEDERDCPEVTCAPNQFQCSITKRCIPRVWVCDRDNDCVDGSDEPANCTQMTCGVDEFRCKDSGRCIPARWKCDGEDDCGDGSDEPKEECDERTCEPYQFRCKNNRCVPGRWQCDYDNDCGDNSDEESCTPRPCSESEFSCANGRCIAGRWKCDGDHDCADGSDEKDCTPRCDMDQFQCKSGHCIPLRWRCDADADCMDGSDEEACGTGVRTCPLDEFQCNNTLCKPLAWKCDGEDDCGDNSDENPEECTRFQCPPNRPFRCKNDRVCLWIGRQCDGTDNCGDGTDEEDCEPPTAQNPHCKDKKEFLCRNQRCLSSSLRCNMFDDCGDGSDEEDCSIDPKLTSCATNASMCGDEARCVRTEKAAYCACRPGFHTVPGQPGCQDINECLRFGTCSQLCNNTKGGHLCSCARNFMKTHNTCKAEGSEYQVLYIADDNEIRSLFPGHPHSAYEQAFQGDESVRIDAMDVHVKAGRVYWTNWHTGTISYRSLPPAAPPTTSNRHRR

Binder	Kd [1] [µM]	Kd [2] [µM]	percent of mouse collagenase-3 binding [3] [%]	fold higher affinity compared to the low density lipoprotein receptor-related protein [4] [fold]	Kd [5] [µM]
B1	0.0039	0.0462	100	~10	0.0528
B2	–	–	0	–	–
B3	–	–	99.4	–	–
B4	–	–	15.3	–	–
